# In the nanobody polyreactivity screen of Harvey et al. (2022):
# Experiment: yeast display, Sf9 membrane polyspecificity reagent, FACS + sequencing; frameworks hold sequencing errors
# Procedure, shortened: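 Galactose induction of a Saccharomyces cerevisiae BJ5465 synthetic nanobody display library ran 36–48 hours. The cells were then stained for 1 hour at 4 °C with 10% biotinylated, detergent-solubilized Sf9 membrane reagent, pulled down on streptavidin microbeads and FACS-sorted into low and high (top ~1%) gates on expression and reagent-binding fluorescence. Labels for polyreactivity follow the gate of origin.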
row,Sequence,polyreactivity (PSR sort gate)
1,QVHLVESGGGLVHAGGSLRLSCAASGSTFYPYAMGWYRQAPGKERELVAAISISGTTYYADSVKGRFTISRDNAKNTVYLQMNCLKPEDTAVYYCAKRAWVRRYPGRVGYNMYYWGQGTQVSVSS,high polyreactivity
2,QVHLVESGGGLVHAGGSLRLSCAASGSTFYYYAMGWYRQAPGKERELVAAIRLRGGGTYADSVKGRFTISRDNAKNTFYLQMNSLKPEDTAVYYCAARVWYHGTQFGYWGQGTQVTVSS,high polyreactivity
3,QVHLVESGGGLVQAAGSLRLSCAASGITFAPYAMGWYRQAPGKERELVAGINTGGSTYYADSVKGRFTISRDKEKNTVYLQMNSLKPEDTAFYYCATDSYPADQDIPGCDYWGQGTQVTVSS,low polyreactivity
4,QVHLVESGGGLVQAAGSLRLSCAASGRIFSYNAMGWYRPAPGKERELVAAISSDGSTYYADSVKGRFTISRDNAKNTVYLQMNSLKPEDTAVYYCAASQVVWFDYTTAQVGSYKVNYWGQGTQVSVSS,low polyreactivity
5,QVHLVESGGGLVQAGGILRLSCAASGFIFLQYTMGWYRPAPGKERELVAGISWSGDSTYYADSVKGRFTISRDNAKNTVYLQMNSLKPEDTAVYYCNADWRAAGSDFAFGNPQLYDDWGQGSQVTVSS,low polyreactivity
6,QVHLVESGGGLVQAGGRLRLSCAASGRTFFWYAMGWYRQAPGKEREFVAAITWRTGSTYYADSVKGRFTLSRDNAKNTVYLQMNSLKPEDTAVYYCAGEFPWSFATYYSWGQGTQVTVSS,high polyreactivity
7,QVHLVESGGGLVQAGGRLRLSCAASGSIFPGYAMGWYRQAPGKERELVAAITFSGGSTYYADSLKGRFTISRDNAKNTVYLQMNSLKPEDTAVYYCAAPGWYGGYPSYYEYGYWGQGTQVTVSS,low polyreactivity
8,QVHLVESGGGLVQAGGSLLLSCAASGRILGPNAMGWYIQAPGKERELVAAINSGGSTNYADSVKGRFTISRDNAKNTVYLQMNSLKAEDTAVYYCNAVYGVYDFNYWGQGTQVTVSS,low polyreactivity
9,QVHLVESGGGLVQAGGSLRISCSASGPSYTHYAMGWYRQAPGKERELVASICDGGGTHYADSVKGRFTISRDNAKNTVYLEMKSLKPEDTAVYYCATYRYPTRRYDYWGQGTQVPVSS,low polyreactivity
10,QVHLVESGGGLVQAGGSLRLCCAASGSILVSYAMGWYRQAAGKERELVAAITYTGGNTYYADSGKGRFTISRDNAKNTVYVQLNSQKPEDTAVYYCNAGWTQTSVTFDYWGQGTQVTVSS,low polyreactivity
11,QVHLVESGGGLVQAGGSLRLICAASGISFLAYAMGCYRHAPRKERELVAAISTDGGSTYYADSVKGRFTISRDNAKNTVYLQMNSLKPVYTAVYYCAAKQRYVRTRGMDYWGQGTQVTVSS,high polyreactivity
12,QVHLVESGGGLVQAGGSLRLICAASGSIFPRNAMGWYRQAPGKERELVARINSGGTTKYADSVKGRFTISRDNAKNTVFLQMNSLKPEDTAVYYCNADTYILDPLRKSYGYDYWGQGTQVTVSS,low polyreactivity
13,QVHLVESGGGLVQAGGSLRLICAASGYIFPYYSMGWYRQAPGKERELVAGITTDGSSTYYADSVKGRFTISRDNAKKTVYLQMNSLKPEDTAVYYCYGYPGYTWGWYDFWGQGSQVTVSS,low polyreactivity
14,QVHLVESGGGLVQAGGSLRLICAAYRRTLGGNAMGWYRQAPGKERELVAPITHSASTYADSVKGRFTISRDNAKNTVYLQMNSLKPEDTAVYYCNAPDPSDQHGDYWGQGTQVTVSS,low polyreactivity
15,QVHLVESGGGLVQAGGSLRLRCAASGLTSTNNAMGWYRQAPGKERELVAAITSGSTTNYADSVKGRFTISRDNAKNTVYLQMNSLNPEDTAVYYCAAQYGVWWRGYYYPEYDYWGEGTQVTVSS,low polyreactivity
16,QVHLVESGGGLVQAGGSLRLRCAASGSISGRYAMGWYRQAPGKERELVAAISWIGGSTYYADSVKGRFTISRDNAKNTVYLQMNSLKPEDTAVYYCNVSIDTRTHPLLVVFYGYDYWGQGTQVSVSS,low polyreactivity
